Measured values published in the supplement of paper PMC9170038.

Tested on: MS2 coat protein
Test: apparent KD of MS2 coat protein; designed switch direction (-1 OFF switch, 1 ON switch): 1; higher = weaker reporter binding
Outline: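 The apparent KD reported per design is the median over clusters of curve fits to normalised cluster fluorescence. The RNA switches were transcribed on Illumina chips by stalled E. coli RNA polymerase. SNAP-549-labelled MS2 coat protein was titrated from 0.7 or 1.5 nM, doubling up to 3 µM, in Tris-HCl pH 7.5 buffer containing KCl, MgCl2, BSA, DTT, tRNA and Tween-20, with no input, 200 uM small-molecule ligand, or an oligonucleotide input.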

[1] = input ligand: microRNA oligo, concentration not stated
[2] = Eterna round: R95, input ligand: FMN 200 uM
[3] = Eterna round: R95, input ligand: microRNA oligo, concentration not stated
[4] = Eterna round: R95, input ligand: none

Sequence | apparent KD of MS2 coat protein [1] [nM] | apparent KD of MS2 coat protein [2] [nM] | apparent KD of MS2 coat protein [3] [nM] | apparent KD of MS2 coat protein [4] [nM] | apparent KD of MS2 coat protein (input ligand: FMN 200 uM) [nM] | apparent KD of MS2 coat protein (input ligand: none) [nM]
UUGCUCGUGUGAGGAUAUGCCGCCGUUUCGGCUGCAGAAGGUACUCUGUUACAUGAGGAUCACCCAUGUCUCUGUUGUUUCGUG [salish99_SSNG1_r04_939] (Eterna round: R96, puzzle: Same State NG 1) | 34.7 | – | – | – | – | –
UUGGUGUAGAUACAGGAUAUGUUGCUUGUAACAUGAGGAUCACCCAUGUAUCUAUGAGAUUAAAUGCAGAAGGGUGCACAUCACU [salish99_ss2_r3_089] (puzzle: Same State 2) | – | 390 | 582 | 1020 | – | –
UUGUUUUGAAAUUAACAUGAGGAUCACCCAUGUCUUGACACAGAGGAUAUACAUGUUUGUUUGUAGUAGAAGGCUGUUUAUUGU [JR_SSNG3_Sub097] (Eterna round: R96, puzzle: Same State NG 3) | 98 | – | – | – | 57 | 135
UUUAGAUUCAGAGGAUAUUGAUGUUGUAUUUUACAAGAAGGCUGAUUGGUUUGAAUUGUUUUUUAACAUGAGGAUCACCCAUGU [JR_SSNG1_Sub011] (Eterna round: R96, puzzle: Same State NG 1) | 19.2 | – | – | – | – | –
UUUAGUAGCGGGCAGGAUAUGUAUUAAAAUACAUGAGGAUCACCCAUGUGCGGGUAUAACACCCGACAGAAGGGCCAAUCGCUAC [Laonerce - 8] (puzzle: Same State 2) | – | 22.3 | 162 | 237 | – | –
UUUAGUGGCGGGCAGGAUAUGUAUUAAAAUACAUGAGGAUCACCCAUGUGCGGGUAUAACACCCGACAGAAGGGCCAAUCGCUAC [Laonerce - 7] (puzzle: Same State 2) | – | 20.9 | 275 | 397 | – | –
UUUAGUUGCGGGCAGGAUAUGUAUUAAAAUACAUGAGGAUCACCCAUGUACGGGUAUAACACCCGACAGAAGGGCCAAUCGCGAC [Laonerce - 4] (puzzle: Same State 2) | – | 16.8 | 62.6 | 91.5 | – | –
UUUAUACAUGAGGAUCACCCAUGUCAAUGUAGUCGAGGAUAUGGGCAGCUGUGAGGCGUACUAGAAGGCGAAGAGG [JL-ss1-3.09 ViennaUCT mod] (puzzle: Same State 1) | – | 103 | 378 | 579 | – | –
UUUAUAUUCAGAGGAUAUUGAUGUUGUAUUUUACAAGAAGGCUGAUUGUUUUGUAAUGUUAUUAUACAUGAGGAUCACCCAUGU [JR_SSNG1_Sub014] (Eterna round: R96, puzzle: Same State NG 1) | 17.3 | – | – | – | – | –
UUUCGAUAGAUAGGAUAUCACCUUACAUGAGGAUCACCCAUGUUGGCCGUGCUGGUUAUUCAUACUGAGAAGGAUCUUGAUGAC [JR_SSNG2_Sub004] (Eterna round: R96, puzzle: Same State NG 2) | 37 | – | – | – | 39.4 | 45
UUUCUUCUCGUAGGAUAUGUAGGAUAUGCCUACAUGAGGAUCACCCAUGUUCGCAUGGCAGAAGGACAGAAGGACGAUCACCCU [pwkr ssNG2 2FMN + 1F5.9] (Eterna round: R96, puzzle: Same State NG 2) | 234 | – | – | – | 55.4 | 502
UUUGAAUUGCAAGGAUAUCUUAUUUAGAUUUUAAGAGAAGGUGCUUUAUAGUUACAUGAGGAUCACCCAUGUAUUUCUUUUUAU [JR_SSNG1_Sub062] (Eterna round: R96, puzzle: Same State NG 1) | 18.5 | – | – | – | – | –
UUUGAAUUGCAAGGAUAUUGAUAACAUGAGGAUCACCCAUGUAAUUGUUCGAGUUAGAUUAGUUACAAGAAGGUGCUAUUGUUU [JR_SSNG2_Sub039] (Eterna round: R96, puzzle: Same State NG 2) | 165 | – | – | – | 385 | 287
